Laboratory results from article PMC7934869 (2021).

Key:
[1] = target: T1, recombinant Plasmodium falciparum circumsporozoite protein (rPfCSP) (Plasmodium falciparum 3D7, UniProt Q7K740 19-374); test: ITC; first site (KD1)
[2] = target: T1, recombinant Plasmodium falciparum …; test: ITC; second site (KD2)

T1 sequence (Q7K740 19-374): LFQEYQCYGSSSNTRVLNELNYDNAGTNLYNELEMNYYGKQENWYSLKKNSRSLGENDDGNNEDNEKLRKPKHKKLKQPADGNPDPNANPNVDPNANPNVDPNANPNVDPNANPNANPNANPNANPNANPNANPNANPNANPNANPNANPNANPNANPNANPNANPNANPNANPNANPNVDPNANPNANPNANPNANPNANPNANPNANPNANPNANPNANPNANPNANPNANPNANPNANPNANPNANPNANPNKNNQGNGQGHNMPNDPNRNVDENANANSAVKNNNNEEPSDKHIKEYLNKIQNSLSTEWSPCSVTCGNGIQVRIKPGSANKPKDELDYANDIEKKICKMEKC

B1: CIS43 human monoclonal antibody (antibody, V domains shown)
VH: QVQLVQSGAEVKKPGASVKVSCKASGYTFTSYAIHWVRQAPGQRLEWMGWIKAGNGNTRYSQKFQDRVTITRDTSTTTAYMELSSLRSEDTAVYYCALLTVLTPDDAFDIWGQGTMVTVSS
VL: not shown
What does the source list for B1?
Kd [1]: 7.9 nM; Kd [2]: 42 nM
